In PMC12240809 (2025):
Where two headings read alike, the source gives them in different places.

B1: taxadiene 5α-hydroxylase (T5αH), soluble portion, 47 N-terminal amino acids removed (enzyme)
chain: SSLKLPPGKLGIPFIGESFIFLRALRSNSLEQFFDERVKKFGLVFKTSLIGHPTVVLCGPAGNRLILSNEEKLVQMSWPAQFMKLMGENSVATRRGEDHIVMRSALAGFFGPGALQSYIGKMNTEIQSHINEKWKGKDEVNVLPLVRELVFNISAILFFNIYDKQEQDRLHKLLETILVGSFALPIDLPGFGFHRALQGRAKLNKIMLSLIKKRKEDLQSGSATATQDLLSVLLTFRDDKGTPLTNDEILDNFSSLLHASYDTTTSPMALIFKLLSSNPECYQKVVQEQLEILSNKEEGEEITWKDLKAMKYTWQVAQETLRMFPPVFGTFRKAITDIQYDGYTIPKGWKLLWTTYSTHPKDLYFNEPEKFMPSRFDQEGKHVAPYTFLPFGGGQRSCVGWEFSKMEILLFVHHFVKTFSSYTPVDPDEKISGDPLPPLPSKGFSIKLFPRP
modifications: RED-tris-NTA dye on the His tag (NanoTemper His-Tag labelling kit)
B2: taxadiene synthase 2 (TDS2), soluble portion, 60 N-terminal amino acids removed (enzyme)
chain: SGSPTKLATENANAVAESNLIPRLSANYHGDLWHHGVIQTLQTPYQESSSYQERAEELIVKIKDMFKAVEEGAISPSAYDTAWVARVPDGSEKPRFPQALNWLLHNQLQDGSWGLESHFMLSDRLLSTLNSVISLLVWKTGQQQVEQGTLFITENLKLLEGEDELPPDFEIIFPALLQKAKALGMSLPDHDLPFIKSLSVAREARLASYTDNNIPASMLNALEGLEEVIDWDKIMRFQMPCLYSIDLLERLSLVDNIEHLGIGRHFKQEIKVALDYVYRYWSERGIGLGRDSLIPDLNTTALGLRTLRAHGYNVSSEVLNNFKDENGRFFSSLGQTHVELRSMVNLLRASDLAFPDEPLMDDAKIFAEAYLRDALATRISTNTKLFKEIDYAVEYPWHMSIPRLEARSYIDVYDDDYTWQNKTLYRMSNLSNAYCLELAKLDFNIVQSLHQEELKLLTRWWKESGMADINFTRHRVAEVYFSSATFEPEYSSTRIAFTKIGCLQVLFDDMADIFATLDELRDFTEGVKRWDTSLIHKLPDCMQTCFRVWFNLMEEVNNDVSNVQGRDMLNHIRKPWELYFNCYVQEREWLDAGYIPTLEEYLKTYSISVGLGPCTLQPILLMGDIVKDDVVEKVHYPSNLFELVSLSWRLTNDTKTYQAEKARGQQASGIACYMKDNPGSTEEDAIKYICGVVDRALKEACFEYFKPADDVPMSCKSFIFNLRLCVQIFYKFIDGYGIANEEIKDYIRKVYIEPIQV
modifications: RED-tris-NTA dye on the His tag (NanoTemper His-Tag labelling kit)

Experiments:
Test in all cases: MST
[1] = target: T1, FoTO1(ΔC), FoTO1 with the C-terminal α-helix deleted, fused to N-terminal mTurquoise2 (Taxus media)
[2] = target: T2, FoTO1 (facilitator of taxane oxidation), fused to N-terminal mTurquoise2 (Taxus media)
[3] = target: T1, FoTO1(ΔC), FoTO1 with the C-terminal …; remark: listed apart in the source
[4] = target: T2, FoTO1 (facilitator of taxane …); remark: listed apart in the source

Binder | Kd [1] | Kd [2] | Kd [3] | Kd [4]
B1 | > 10000 nM | 470 nM | – | –
B2 | – | – | > 10000 nM | 610 nM
